In patent publication US20250215091A1, “Anti-GAL3 Antibodies and Compositions” (Les Laboratoires Servier, priority 2022, published 2025):

Assays:
[1] = system: plasma IL-5; test: HOCI-induced murine fibrosis model: plasma IL-5 (MSD); assay type: in vivo, mice; details: first experiment, day 42; vs HOCI group; FIG. 9
Protocol: (§1) In a first experiment, control mice (n=12) received a daily intradermal injection of 300 μL of sterile phosphate buffer saline (PBS) for 5 consecutive days per week, for a duration of 42 days. HOCI alone and HOCI with antibody (HOCI-antibody) treated mice (n=12 per group) received a daily intradermal injection of 300 μL of HOCI for 5 consecutive days per week, for a duration of 42 days. Antibody-treated mice also received a subcutaneous injection of 20 mg/kg antibody, starting at day minus one and every 5 days between day 5 and day 40. Each antibody was solubilized in sterile, endotoxin-free PBS before injection. In a second experiment, the same protocol was applied, except that duration of the study was 63 days and antibodies were given every 7 days starting at day minus 1 until day 62.
(§2) Mice that received daily injection of HOCI were also treated by intratracheal instillation of 0.5 mg/kg of TD139 compound (HOCI-TD139), a small molecule Gal3 inhibitor. In a first experiment, the administrations started from day 21 and the compound was given every 3 days until day 39. In a second experiment, the administrations started from day 20 and the compound was given every 3 days until day 62. TD139 was initially dissolved in 100% DMSO then diluted 50-fold in endotoxin-free PBS before administration.
In the first experiment, a mixed effect model with repeated measurements was performed on Control group, HOCI treated group, HOCI-antibody- and HOCI-TD139-treated groups. The impact of HOCI administration on plasma IL-6 and IL-5 levels was evaluated compared to the control group. The impact of antibody and TD139 treatments was compared to the HOCI group (FIG. 9). IL-6 and IL-5 were quantified by using the MSD technology from Mesoscale.

[2] = system: plasma TNF alpha; test: Rat ARDS model (LPS challenge): plasma TNF alpha (MSD); assay type: in vivo; details: 4 h following LPS challenge; vs LPS group; FIG. 18
Summary of the method: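 Rats given anti-Gal3 antibodies (14 mg/kg in PBS) or PBS on days −11, −6 and −1, then challenged with LPS 0.25 mg/kg s.c. on day 1; dexamethasone 10 mg/kg p.o. 2 h pre-LPS as reference. Plasma sampled 4 h post-LPS; TNF alpha quantified by MSD.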

[3] = system: genes differentially regulated between HOCI group and control group in whole blood cells; test: HOCI-induced murine fibrosis model: whole blood RNA sequencing; assay type: in vivo, mice; details: of 510 genes differentially regulated HOCI vs control; day 42, whole blood
Protocol: as §1, §2
In the first experiment, global gene expression was examined at day 42 in whole blood cells by RNA sequencing.
Whole blood was collected in RNA protect tubes (Qiagen) and were processed for RNA extraction using the RNeasy Protect Animal blood kit with the optional on-column DNAse I digestion. Total RNA samples were quantified on Nanodrop 2000 (ThermoFisher Scientific™) and analyzed on Bioanalyzer (Agilent) using RNA 6000 Nano chips to determine RNA quality (RIN). Total RNA matching the QC criteria were included in the study. Purified RNA samples were used as input for the TruSeq Strand-specific RNA-seq (poly A selection and globin depletion) according to manufacturer's protocol (Illumina). […]
Raw reads were processed using the in-house RNAExp Expression pipeline 2.1 and the quality was assessed using FastQC tools. Then, reads were trimmed for adaptors using Cutadapt and trimmed reads were aligned to mouse mm39 reference genome using the STAR aligner. Aligned data were evaluated for quality using Samtools and Picard tools. Then, aligned reads per gene were quantified using FeatureCount. […] Read count were normalized by the variance stabilizing transformation vst function from DESeq2 R package.
55,416 genes were detected in the data. […] Genes differentially expressed between groups were determined using a linear model (ImFit function from limma R package) on vst transformation gene expression dataset. […]

[4] = system: murine model of bleomycin-induced fibrosis; test: Bleomycin-induced murine lung fibrosis model: body weight and body weight metrics; assay type: in vivo, mice
Protocol: Control bleomycin mice named ‘Bleo’ received an administration of 1.65 mg/kg bleomycin by the oropharyngeal route on Day 1. […] Antibody-treated mice also received an administration of 1.65 mg/kg bleomycin by the oropharyngeal route on Day 1 and a subcutaneous injection of 20 mg/kg antibody, starting on day minus one and on days 4, 8, 12, 16 and 20. Each antibody was solubilized in sterile, endotoxin-free PBS before injection. Mice that received bleomycin were also treated by oropharyngeal administration of 0.5 mg/kg of TD139 compound (Bleo-TD139), a small molecule Gal3 inhibitor, starting on day 12 and every 2 days until day 20. TD139 was initially dissolved in 100% DMSO.
Mice were weighed daily. Their growth curves are represented on FIG. 12. Control mice had normal growth with a mean percent increase of 6.4% of their initial body weight measured on day minus 1.
Body weight metrics were assessed by using two parameters called Time to weight growth (TWG) and Time to baseline (TTB), shown on FIG. 13. Time to weight growth corresponds to the point of inflection when mice show an ascending growth curve and start to regain weight within the course of the experiment. Time to baseline corresponds to the number of days required for mice to recover their initial body weight (day minus 1). The median TWG was 10 days for the untreated bleomycin group. […] TD139 compound had no efficacy on this parameter (p-value 0.53).

[5] = bleomycin 1.65 mg/kg, antibody 20 mg/kg s.c.

B1: E07: anti-Gal3 monoclonal antibody, IgG1 format; VH SEQ ID NO 42, VL SEQ ID NO 43 (antibody, V domains shown)
VH: EVQLVESGGSLVKPGGSLRLSCAASGFTFSNYNMNWVRQAPGKGLEWISNIYGSSRYIYYADFVKGRFTISRDNAKNSLYLQMNSLRAEDTAVYYCVRSYYGGMDVWGRGTLVTVSS
VL: QSVLTQPASVSGSPGQSITISCAGTSSDVGGYYSVSWYQQHPGKAPKLMIYYDSNRPSGVSNRFSGSKSGNTASLTISGLQAEDEADYYCSSYTGYSTRVFGGGTKLEIK
[1]
  plasma IL-5 levels: decreased significantly
[2]
  TNF alpha plasma levels: also decreased, displaying an intermediary profile
[3]
  number of HOCI-dysregulated genes counteracted by treatment: 445 genes
  percentage of HOCI-dysregulated genes counteracted by treatment: 87.2%
[4]; [5]
  body weight status on day 21: full weight recovery
  day from which body weight reached values close to those of control mice: 18 days
[4]; bleomycin 1.65 mg/kg, antibody 20 mg/kg s.c., FIG. 12
  recovery of body weight: more rapid recovery of body weight
[4]; median TWG 10 days for untreated bleomycin group, FIG. 13
  reduction of median Time to weight growth (TWG): 2 days
